One molecule from paper PMC3184076 (2011) can be followed below.

The test concerns the target MPR.03 biotinylated peptide (HIV-1, biotin on the C-terminus). The test is described as follows: SPR. In general terms: In SPR one partner is held on a chip, and binding of the other changes the refractive index at the surface.

B1: CAP206-CH12 recombinant human monoclonal antibody (antibody, V domains shown)
VH: QVQLVQSGAEVKKPGSSVKLSCKASGGTFGSYSVTWVRQAPGQTFEWVGRIVPWVGVPNYAPKFQGRVTITADKSSTVYMELTSLRFEDTAVYYCATAYEASGLSYYYYMDDWGKGTTVTVSS
VL: EIVLTQSPGTLSLSPGERATLSCRASQSVTSSYLAWFRHKPGQAPRLLIYGASYRGTGIPDRISGSGSGTDFTLTISRLEPEDFAVYYCQHYGGSPGMYTFGQGTRLEIK
As usually defined, the koff is the first-order rate constant of dissociation. Read a low koff as slow dissociation. Regarding B1, the koff amounted to 0.00012 s⁻¹.
